In the supplement of paper PMC10126150:
± gives the standard deviation of the averaged measurements.

These sequences were tested on ATP (assay: switch fluorescence ratio, 500 uM ATP over buffer (Cy3 cluster intensity, sum of 5 cycles each) (fold (ratio)); higher = stronger signal-on switching upon ATP binding; sequences stand for … in TCGTCGGCAGCGTCAGATGTGTATAAGAGACAGTTTTTTTTTTTTTTTTTTTTTTTTT…TC). Settings: aptamer strand: ATP DNA aptamer (quencher-CACCTGGGGGAGTATTGCGGAGGAAGG + anchor), 100 nM annealed; ATP concentration: 500 uM.
How it was run: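 Between each of five buffer/ATP cycles, the flow-cell was stripped with NaOH and re-annealed. Each cycle imaged Cy3-labelled switching-strand clusters, annealed to 100 nM quencher-labelled ATP aptamer on a modified Illumina MiSeq flow-cell, first in selection buffer and then after 15 min with 500 uM ATP at 22 °C. The fluorescence ratio is summed target-cycle over summed buffer-cycle Cy3 intensity per cluster, averaged per switch-domain sequence, with clusters outside 100-1000 RFU excluded.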
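Further: ATP exposure 15 min at 22 °C before imaging.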

Row | Sequence | switch fluorescence ratio
1 | CGGTGTAGTC | 1.012 ± 0.01
2 | TACTTGTAAT | 1.02 ± 0.055
3 | AAGGAAATTA | 1.01 ± 0.058
4 | AATCCAATGT | 1.003 ± 0.0069
5 | ATCTAAATAA | 1.03 ± 0.019
6 | TACGGTACGG | 1.18 ± 0.04
7 | ATGTGTAGTT | 0.992 ± 0.019
8 | AATATAGTAT | 0.998 ± 0.034
9 | AGGTGAGGGG | 0.99 ± 0.022
10 | GAAACGCGTA | 0.994 ± 0.021
11 | ACGGCAAAGG | 1.155 ± 0.0063
12 | TTTTGCAAGC | 1.14 ± 0.13
13 | GCGCAGAACG | 1.07 ± 0.015
14 | GGTTAGTGGG | 0.998 ± 0.017
15 | TAAAACTTAC | 1.45 ± 0.1
16 | AGTACTCTGT | 1.01 ± 0.039
17 | CTATACAGTG | 1.02 ± 0.011
18 | AAGCGGTATC | 1.03 ± 0.021
19 | GCGCTGCTGT | 1.04 ± 0.038
20 | TATAGTGATG | 1.01 ± 0.019
21 | TTTGTAGTCA | 1.05 ± 0.083
22 | AAAGGGGCTA | 0.988 ± 0.02
23 | AGTGAGTCCG | 0.996 ± 0.01
24 | AGCCCCATAG | 1.17 ± 0.042
25 | GTAGCAAGGG | 2.38 ± 1.9

Row | Sequence | switch fluorescence ratio
26 | CAATTTTGCT | 0.98 ± 0.019
27 | GTACTTGGGA | 1.04 ± 0.074
28 | CGGGGATGTG | 1.02 ± 0.025
29 | TGTTTTCTGT | 0.976 ± 0.04
30 | TAAATGAGGT | 0.998 ± 0.015
31 | GTGAGGATGG | 0.978 ± 0.012
32 | TTAAATAGGG | 1 ± 0.057
33 | GCCAGAGAGG | 1.005 ± 0.0091
34 | AAAATTCCGG | 1.011 ± 0.0011
35 | CTGAGGGGGA | 1.09 ± 0.17
36 | GGACCTGCTG | 0.969 ± 0.0033
37 | GATCTGGATA | 0.9964 ± 0.0013
38 | GTCCTGGGGC | 0.9947 ± 0.0014
39 | TCGGAGAGTC | 1.26 ± 0.53
40 | AATGATTTTG | 0.9765 ± 0.0065
41 | CACAGTAAAC | 1.25 ± 0.11
42 | GTGTCCACAG | 1 ± 0.014
43 | AAGTGGGGAG | 1 ± 0.024
44 | TTTGGAGGTT | 1.11 ± 0.2
45 | AGTAGGGCGT | 0.9964 ± 0.0088
46 | GCGGTGGATC | 1.04 ± 0.027
47 | AAGGATCTGG | 0.977 ± 0.026
48 | CGGGAGTTAG | 1.02 ± 0.021
49 | ATTGAGGTTT | 0.992 ± 0.022
50 | AGAATCGGCA | 0.997 ± 0.031

Row | Sequence | switch fluorescence ratio
51 | TGGATGGGAG | 0.9922 ± 0.0028
52 | GAAGGGTGAA | 0.9966 ± 0.0077
53 | TGTTCTTCCG | 1.23 ± 0.1
54 | CTTTATTTTC | 1.03 ± 0.039
55 | GGGTATAGCC | 0.9807 ± 0.0066
56 | TCATAGGGGC | 1.04 ± 0.012
57 | CGTTAGCATT | 1.17 ± 0.027
58 | ATTTTTTATT | 0.9923 ± 0.0097
59 | CGTCATGCGT | 0.964 ± 0.025
60 | GGTTTATTTT | 0.9946 ± 0.0013
61 | CGGAGGGGGA | 0.973 ± 0.019
62 | AAAGGGTGTT | 1.04 ± 0.013
63 | TTCATCTGTT | 0.9711 ± 0.0084
64 | AGTAGGTAAT | 0.9902 ± 0.0071
65 | ATAGCTTTGA | 1.02 ± 0.0014
66 | TAAATAAATG | 0.976 ± 0.048
67 | ATGTGACAGC | 0.955 ± 0.062
68 | CCTAGCGGTT | 1.1459 ± 0.00038
69 | GGGTCTCATT | 0.981 ± 0.022
70 | TGAGTAGCTC | 0.9715 ± 0.0037
71 | AAATTTGGCT | 0.992 ± 0.071
72 | TCTTTCCGGT | 1.14 ± 0.23
73 | GACACTGGTA | 1 ± 0.027
74 | TTAAGAACG | 1.002 ± 0.0087
75 | TTTTGCCTTC | 1.09 ± 0.027

Row | Sequence | switch fluorescence ratio
76 | GGTTGTATTT | 0.962 ± 0.06
77 | GAACTGGGGA | 0.984 ± 0.047
78 | CGGCTGGGGC | 1.02 ± 0.015
79 | TTTTACATTC | 1.03 ± 0.056
80 | AGAGGTAAGC | 1.02 ± 0.019
81 | TTTGCCATAG | 1.02 ± 0.022
82 | GCTGGTAAAG | 0.972 ± 0.017
83 | TTGTTTTTCA | 0.999 ± 0.027
84 | ATGAAGACGG | 1.03 ± 0.059
85 | TGCTTGTTCG | 1.029 ± 0.0097
86 | GAGTCCGTGG | 1.1 ± 0.021
87 | AAGTGTGCCT | 0.983 ± 0.01
88 | TTCTTTACAC | 1.039 ± 0.0025
89 | CTAGTGATTG | 0.99358 ± 0.0003
90 | TTTGACTTGT | 1.005 ± 0.0045
91 | TAAATCACGC | 1.23 ± 0.24
92 | GAGCTGGATA | 0.967 ± 0.03
93 | GACGTTAGCT | 1.03 ± 0.012
94 | TTTATAGTTA | 0.979 ± 0.039
95 | CGGGATAATC | 1.07 ± 0.052
96 | TAAAGCGGGC | 1.05 ± 0.043
97 | AGTCATCACC | 1.02 ± 0.023
98 | CGAATGGGGT | 0.985 ± 0.039
99 | GGGTCGCGCC | 1.01 ± 0.046
100 | GAAGGGGTTG | 1.02 ± 0.065

Row | Sequence | switch fluorescence ratio
101 | GGTACTTCTA | 1.01 ± 0.018
102 | TCGGACTTTA | 0.998 ± 0.042
103 | TCCGGGATAT | 2.23 ± 0.98
104 | TTACCCGGAA | 1.9 ± 0.048
105 | CGGTACTATA | 1.055 ± 0.0086
106 | TTTTACTGCA | 1.07 ± 0.073
107 | ACTGAGGGGA | 1 ± 0.08
108 | TTGTGGGTCC | 1.013 ± 0.0093
109 | ACGAATTTGT | 1.03 ± 0.038
110 | AACTATAAGA | 1.06 ± 0.1
111 | CGTAAAATTT | 1.05 ± 0.12
112 | AAGGTTTTGG | 1.15 ± 0.24
113 | GCCGGAAAGT | 1.05 ± 0.07
114 | AAGAGGCGGT | 1.01 ± 0.022
115 | AACCTACGGC | 1.38 ± 0.083
116 | CTGGGGGGTT | 0.994 ± 0.019
117 | ATGCTAAGCT | 1.013 ± 0.0096
118 | CAGGGAAAAC | 1.03 ± 0.034
119 | TAGGGGTCGT | 1 ± 0.02
120 | AAAGGTAATA | 1 ± 0.025
121 | TTAGCATGAT | 1.14 ± 0.2
122 | ATGGTTAAGG | 0.9812 ± 0.0085
123 | CAGGGCGTTT | 1.01 ± 0.028
124 | CCAGTCGGAG | 0.9776 ± 0.0038
125 | TTCGAGTTTG | 0.9843 ± 0.0032

Row | Sequence | switch fluorescence ratio
126 | GGGTTTATTG | 0.998 ± 0.049
127 | ATTGGGAGC | 0.956 ± 0.015
128 | CGTAACTGTT | 0.995 ± 0.091
129 | TATTAAATTC | 0.984 ± 0.039
130 | TTTTAACATA | 1.02 ± 0.016
131 | CATAATAACC | 1.03 ± 0.018
132 | TCCGGGAAGC | 1.24 ± 0.035
133 | TGAACGGGGA | 1.02 ± 0.031
134 | TGTGGGGCTT | 1.01 ± 0.035
135 | TGGGAAAGGG | 1.01 ± 0.036
136 | CAAATTAGGA | 0.9764 ± 0.0073
137 | TTAAATCCGT | 0.989 ± 0.021
138 | TCGCGGGGGG | 0.976 ± 0.034
139 | GGGCATAATG | 1.02 ± 0.041
140 | AGGTGCGGAA | 1.0109 ± 0.00064
141 | CTAAGGTAAG | 0.981 ± 0.049
142 | TCGCGTTCGG | 1.02 ± 0.013
143 | TTTGTTTAGA | 0.9917 ± 0.0069
144 | GGGTGCATTG | 1.03 ± 0.021
145 | TAAAGTTTGT | 0.958 ± 0.026
146 | GGGGAGAGGA | 0.987 ± 0.037
147 | GATCGGGAGG | 0.9844 ± 0.0089
148 | AGAGAGACGT | 0.995 ± 0.029
149 | CAAATGTAGC | 1.017 ± 0.0081
150 | TGGGGAACAA | 1 ± 0.055

Row | Sequence | switch fluorescence ratio
151 | GGGGAGTGCG | 0.969 ± 0.01
152 | AAAGGTGCAA | 1.21 ± 0.2
153 | GGGGAGGGGT | 1.01 ± 0.054
154 | CTCATAGGGG | 1.07 ± 0.024
155 | CGTATTAGCG | 0.952 ± 0.025
156 | GAGTGGAGGT | 0.985 ± 0.01
157 | TATTTGGGAT | 1 ± 0.002
158 | CTGTGTTGGT | 0.992 ± 0.022
159 | TTTTTGCATA | 1.25 ± 0.26
160 | CGGATGAGGG | 1.01 ± 0.044
161 | AGGGAATGAA | 1.03 ± 0.085
162 | TGCAAGTGGC | 1.09 ± 0.15
163 | AGGTAGAAGT | 1.03 ± 0.012
164 | GGCGCTTTTC | 1 ± 0.058
165 | TTGGCTTTGA | 0.9893 ± 0.0097
166 | TTGTTAGTTG | 1.01 ± 0.045
167 | TTCACTAGGT | 1.01 ± 0.039
168 | AAGTTTAAGT | 0.989 ± 0.013
169 | AGGTTGTGGT | 1.01 ± 0.016
170 | ACTGGCATTG | 1.02 ± 0.044
171 | ATAGCAGGGG | 1.11 ± 0.082
172 | GTTTATTCGG | 0.981 ± 0.019
173 | GACGTGTTGG | 1.01 ± 0.065
174 | AATTTGCGGG | 0.98 ± 0.024
175 | TGGTTTCCCG | 0.975 ± 0.044

Row | Sequence | switch fluorescence ratio
176 | TTGTTGTTGT | 0.988 ± 0.021
177 | ATATCCGTTT | 0.974 ± 0.066
178 | GGTGACAGCT | 0.979 ± 0.023
179 | ATTATCTGTG | 0.97 ± 0.039
180 | CGTGTGTACA | 0.98 ± 0.01
181 | TAAAAAGGGT | 1 ± 0.048
182 | AGCGACGGGA | 1.1 ± 0.048
183 | GGAAAAATTG | 1.02 ± 0.021
184 | GGGTTAAAGT | 0.994 ± 0.022
185 | TGATGGAAAA | 0.998 ± 0.023
186 | TAGGTGACGG | 0.991 ± 0.021
187 | GATGTTCGGC | 1.05 ± 0.037
188 | TAAGCGGGAC | 2.88 ± 2
189 | TCGGAAATGT | 1.12 ± 0.14
190 | ATAGGCGAAA | 0.986 ± 0.022
191 | CGGGCCATCG | 0.9939 ± 0.0063
192 | TTGCGGTTAG | 1.012 ± 0.0017
193 | TTTTATTGTA | 0.999 ± 0.032
194 | TCATGCGAAA | 1.1 ± 0.013
195 | CAGGGATGCT | 1.02 ± 0.035
196 | AGGTTTTTAA | 1.01 ± 0.043
197 | GGGGGCACGT | 1.017 ± 0.0074
198 | CCTGTTAGCT | 1.15 ± 0.076
199 | TCGAATATTG | 0.9849 ± 0.004
200 | TTCATAACTT | 0.99 ± 0.018
